Measurements as given in patent CN115141273A.

Molecular target: 猫杯状病毒 (Feline Calicivirus, FCV), BJH13株 (Feline calicivirus strain BJH13)
Experiment: cell-based or functional assay

B1: 2G3单克隆抗体 (monoclonal antibody against feline calicivirus, from hybridoma 2G3, CGMCC NO.45148) (antibody, V domains shown)
VH: QVQLQQSGPELVKPGTSVKLSCQASGYTFTNYYMWWVKQRPGQGLEWIGQINPNNDNTDFNEKFRNKATLTVDKSSSTAYMQLSRLTSEDSAVYYCTRRAYWGQGTLVTVSA
VL: GVLLTQAPLSLPVSLGDQASISCRSSQYVVYINGNSYLEWYLQKPGQSPKLLIYKVSNRFSGVPDRFSGSGSGTDFTLKISRVEAEDLGIYYCFQGSHVPYTFGGGTKLEIR
中和抗体效价 (neutralising antibody titre of the injection): 1280 titre (1:x)
中和效价 (neutralisation titre of hybridoma supernatant): 220 to 320 titre (1:x)
小鼠腹水中和效价 (neutralisation titre of ascites): 25100 titre (1:x)
